The values below come from patent publication US20190367592A1 (AC IMMUNE, published 2019).

The target in assay [1] is T1, full-length human Tau (flTau) (human, UniProt P10636-8 1-441).
T1 construct: range 1-441; bought (SignalChem); also called human Tau-441
Nature of the assay: SPR, hybridoma Ab on anti-IgG chip, flTau analyte. On the procedure: Affinity of non-purified antibodies in serum-free hybridoma supernatants was estimated by surface plasmon resonance using a Biacore T-100 instrument (GE Healthcare, United Kingdom). Antibodies were immobilized onto an anti-IgG biosensor chip, and flTau (SignalChem, Canada) was used as the target analyte. Kinetic analysis was done using a 1:1 Langmuir fit model.
For affinity measurements to flTau, antibodies were measured using SPR on a Biacore instrument, with the KDs determined. Biacore affinity measurements were done by immobilizing antibodies on an anti-IgG chip and using flTau as the target analyte.

Assay [2] concerns the target T2, recombinant human Tau monomer, 2N4R isoform (amino acids 2-441) (human, UniProt P10636-8 2-441).
T2 construct: range 2-441; N-terminal His-tag removed with TEV protease; also called monomeric Tau
In words: SPR, mIgG2a captured, Tau monomer analyte, 1:1 fit. The text has this: Antibody heavy and light chains were constructed via gene synthesis and subcloning of the resulting DNA into murine IgG2a (heavy chain) and murine kappa (light chain) mammalian expression vectors. Antibodies were expressed in CHO or 293T cells by transient co-transfection of the heavy chain and light chain plasmids and were purified with affinity resin MabSelectSure (GE Healthcare Life Sciences). Purified recombinant antibodies were screened for binding to Tau monomer protein on a Biacore T200 surface plasmon resonance instrument using a mouse IgG capture kit and a Series S CM5 chip. Antibodies in mIgG2a format diluted in 10 mM HEPES pH7.4, 150 mM NaCl, 0.05% Tween 20 (running buffer, HBSP) were captured for 30 or 45 seconds at a concentration of 1 μg/ml (antibodies 26C1, 94B2-C1, 52F6-F11.v1, 52F6-F11.v2, 11E10-B8, 55E7-F11, 125B1-H3, 123E9-A1, 30G1-B2, 66F5-A1, 89F4-A1, 93A8-D2 and 126F11-G11) or for 70 or 150 seconds at a concentration of 0.1 μg/ml (antibodies 19H6-F7, 3A4-H4, 54C1-H11 and 37D3-H9) using a flow rate of 10 μl/min. […] Association and dissociation times were monitored for 180-480 seconds and for 300-600 seconds respectively. Antibody 37D3-H9 was selected for further analysis due to the high affinity (Table 6) and the absence of NXS/T glycosylation motifs in the CDRs.

The target in assay [3] is T3, MAPT(10-24) (human, also: biotinylated, site not given here).
T3 construct: also called Tau fragment 10-24
T3 peptide: VMEDHAGTYGLGDRK
Nature of the assay: ELISA on Tau 15-mer peptides, O.D.; conditions of this panel not given.

The target of assay [4] is T4, Tau fragment 1-15 (human, UniProt P10636-8 1-15).
T4 construct: range 1-15
T4 peptide (looked up): MAEPRQEFEVMEDHA
The description is as above.

The target of assay [5] is T5, Tau fragment 28-42 (human, UniProt P10636-8 28-42, not fully specified).
T5 construct: range 28-42
T5 peptide (looked up): GYTMHQDQEGDTDAG
Described as above.

In assay [6] the target is T6, Tau fragment 37-51 (human, UniProt P10636-8 37-51).
T6 construct: range 37-51
T6 peptide (looked up): GDTDAGLKESPLQTP
Described as above.

Assay [7] addresses T7, Tau fragment 19-33 (human, UniProt P10636-8 19-33, not fully specified).
T7 construct: range 19-33
T7 peptide (looked up): GLGDRKDQGGYTMHQ
Described as above.

Assay [8] addresses T8, 0N4R Tau (human, UniProt P10636-6 1-383).
T8 construct: also called 0N-Tau
Nature of the assay: indirect or sandwich ELISA on recombinant human Tau isoforms.

In assay [9] the target is T2, recombinant human Tau monomer, 2N4R …. Nature of the assay: SPR, hIgG captured, Tau monomer analyte, 1:1 fit. On the procedure: Affinity of selected antibodies was assessed at 25° C. using a Biacore T200 instrument, the GE Biacore human IgG capture kit and a CM5 Series S chip. The hIgG were diluted to 0.25 μg/ml in 10 mM HEPES pH7.4, 150 mM NaCl, 0.05% Tween 20 (running buffer, HBSP) and captured at a flow rate of 10 μl/min for 150 seconds. Kinetic data was collected for Human Tau monomer injected at concentrations of 0, 0.4, 1.2, 3.7, 11, 11, 33 and 100 nM in HBSP, using a flow rate of 30 μl/min, a 300 second association phase and a 600 second dissociation phase. Between cycles the surface was regenerated using two sequential 30 second injections of 3M MgCl at 10 μl/min. Data was fit to a 1:1 binding model (Table 15).

For assay [10] the target is unchanged. Nature of the assay: SPR single-cycle, human Fab capture kit, Tau monomer analyte; mean ± range, n=2. On the procedure: Affinity of the humanized antibody variants was measured at 25° C. using a Biacore T200 instrument, the GE Biacore human FAb capture kit, and a CM5 Series S chip. Antibodies were diluted to 1 μg/ml in HBSP (10 mM HEPES pH7.4, 150 mM NaCl, 0.05% Tween 20) and captured at a flow rate of 10 μl/min for 180 seconds. Kinetic data were collected for human Tau monomer injected at 1.2, 3.7, 11, 33 and 100 nM in HBSP using the Single Cycle Kinetics methodology and a flow rate of 30 μl/min. Each concentration of Tau monomer was injected for a period of 3 minutes and dissociation was monitored for ten minutes. Between cycles, the surface was regenerated with two sequential one-minute injections of 10 mM glycine pH2.1. Data was fit to a 1:1 binding model using BIAEvaluation software. Each antibody was analyzed twice within the experiment; data in Table 22 are shown as mean±range.

Where no end group is shown, it is not given here.

T2 sequence (P10636 other isoform, or with tags, fused parts or gaps limits assumed): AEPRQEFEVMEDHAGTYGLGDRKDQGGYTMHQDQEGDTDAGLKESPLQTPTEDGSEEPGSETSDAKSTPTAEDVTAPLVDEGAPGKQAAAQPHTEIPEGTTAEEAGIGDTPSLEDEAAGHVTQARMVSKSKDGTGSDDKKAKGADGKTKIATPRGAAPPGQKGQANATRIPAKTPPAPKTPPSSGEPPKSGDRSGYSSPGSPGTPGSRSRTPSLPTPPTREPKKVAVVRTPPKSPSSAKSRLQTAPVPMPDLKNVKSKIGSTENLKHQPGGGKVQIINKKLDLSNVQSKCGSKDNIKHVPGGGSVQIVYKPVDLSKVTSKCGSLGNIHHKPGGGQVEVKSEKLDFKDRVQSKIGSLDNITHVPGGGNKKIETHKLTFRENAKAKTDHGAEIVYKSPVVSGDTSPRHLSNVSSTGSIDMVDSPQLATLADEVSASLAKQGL
T1 sequence (P10636 other isoform, or with tags, fused parts or gaps limits assumed): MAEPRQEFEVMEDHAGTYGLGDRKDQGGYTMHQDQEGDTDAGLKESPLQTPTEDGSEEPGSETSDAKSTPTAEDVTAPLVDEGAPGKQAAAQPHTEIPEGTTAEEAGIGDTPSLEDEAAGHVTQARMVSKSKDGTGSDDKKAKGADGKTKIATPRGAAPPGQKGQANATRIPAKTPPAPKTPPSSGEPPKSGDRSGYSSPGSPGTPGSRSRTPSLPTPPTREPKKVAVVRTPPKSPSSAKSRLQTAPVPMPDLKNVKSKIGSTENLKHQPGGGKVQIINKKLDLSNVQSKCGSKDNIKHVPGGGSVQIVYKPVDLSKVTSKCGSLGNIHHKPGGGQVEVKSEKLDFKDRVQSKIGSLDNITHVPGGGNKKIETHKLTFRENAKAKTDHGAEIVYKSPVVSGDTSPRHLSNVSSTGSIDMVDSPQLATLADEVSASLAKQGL
T8 sequence (P10636 other isoform, or with tags, fused parts or gaps limits assumed): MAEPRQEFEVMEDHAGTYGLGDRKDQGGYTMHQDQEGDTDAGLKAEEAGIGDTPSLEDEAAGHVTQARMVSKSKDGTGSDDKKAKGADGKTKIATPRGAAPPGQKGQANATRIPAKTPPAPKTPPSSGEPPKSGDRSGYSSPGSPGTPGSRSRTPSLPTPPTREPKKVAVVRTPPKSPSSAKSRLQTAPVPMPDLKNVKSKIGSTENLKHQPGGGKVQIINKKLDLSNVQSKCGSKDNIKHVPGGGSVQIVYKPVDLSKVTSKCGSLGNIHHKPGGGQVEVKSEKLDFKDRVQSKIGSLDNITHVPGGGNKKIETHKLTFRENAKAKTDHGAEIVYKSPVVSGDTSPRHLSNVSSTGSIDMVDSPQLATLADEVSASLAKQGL

B1: 94B2-C1 (antibody, mouse IgG2a, V domains shown)
VH: EVQLQQSGPELVKPGASMKISCKASGYSLTGYTMNWVKQSHGKNLEWIGLISPYNGVTSYNQKFKGKATLTVDKSSNTAYMELLSLTFEDSAVYYCARQGAYWGQGTLVTVSA
VL: not shown
For the molecule B1, the dissociation constant Kd was 1.9 nM in assay [1] and 6 nM in [2]. For the same molecule, in [2], the off-rate (koff) is 0.0003 s⁻¹. Besides, the on-rate (kon) in [2] came to 50000 M⁻¹ s⁻¹. The binding result is “binds” in assay [3], “binds” in [4], “no binding (tested: not given)” in assay [5] and “no binding (tested: not given)” in assay [6].

B2: 89F4-A1 (antibody, mouse IgG2a, V domains shown)
VH: EVQLVESGGGLVQPKGSLKLSCAASGFTFNTYAMNWVRQAPGKGLEWVARIRSKSNNYAAYFADSVKDRFTISRDDSQTMLYLQMNNLKSEDTAMYYCVSGGNYVPFAYWGQGTLVTVSA
VL: NIMMTQSPSSLAVSAGEKVTMSCKSSQSVFYSSEQRNYLAWYQQKPGQSPKLLISWASTRESGVPDRFTGSGSGTDFTLTISSVQGEDLAVYYCHQYLSSFTFGSGTKLEIK
Take B2: the Kd in assay [1] stood at 2.9 nM; in assay [2], 27 nM. Also, the koff in assay [2] came out at 0.007 s⁻¹. Further, in [2], the kon was determined as 300000 M⁻¹ s⁻¹. Also, the binding result in [3] is given as “no binding (tested: not given)”; in assay [4], “no binding (tested: not given)”; in assay [7], “no binding (tested: not given)”; in assay [5], “binds”; in [6], “binds”.

B3: 55E7-F11 (antibody, mouse IgG2a, V domains shown)
VH: EVKLEESGGGLVQPGGSMKLSCVASGFTFSNYWMNWVRQSPEKGLEWVAQIRLKSDNYATHYAESVKGRFTISRDDSKSSVYLQMNNLRAEDTGIYYCAGYFYGGYFDVWGTGTTVTVSS
VL: ELVLTQSPTTMAASPGKKITITCSASSSISSNYLHWYQQKPGFSPKLLIYRTSNLASGVPARFSGSGSGTSYSLTIGTMEAEDVATYYCQQGSSLPFTFGSGTKLEIK
Turning to B3, in [2], the dissociation constant (Kd) amounted to 171 nM, the off-rate constant (koff) worked out at 0.04 s⁻¹ and the on-rate constant (kon) came to 200000 M⁻¹ s⁻¹. Also, the binding result in assay [8] is given as “no binding (tested: not given)”.

B4: hu37D3-H9.v28.A4 hIgG1 (antibody, V domains shown)
VH: EVQLVESGGGLVQPGGSLRLSCAASGLIFRSYGMSWVRQAPGKGLEWVATINSGGTYTYYPDSVKGRFTISRDNSKNTLYLQMNSLRAEDTAVYYCANSYSGAMDYWGQGTLVTVSS
VL: DDVLTQTPLSLPVTPGQPASISCRSSQSIVHSNGNTYLEWYLQKPGQSPQLLIYKVSNRFSGVPDRFSGSGSGTDFTLKISRVEAEDVGVYYCFQGSLVPWTFGQGTKVEIK
notes: human IgG1, kappa
For B4, in assay [9], the Kd worked out at 1.5 nM, the koff worked out at 0.0011 s⁻¹ and the on-rate (kon) amounted to 690000 M⁻¹ s⁻¹.

B5: hu37D3-H9.v1 hIgG4.S228P (antibody)
heavy: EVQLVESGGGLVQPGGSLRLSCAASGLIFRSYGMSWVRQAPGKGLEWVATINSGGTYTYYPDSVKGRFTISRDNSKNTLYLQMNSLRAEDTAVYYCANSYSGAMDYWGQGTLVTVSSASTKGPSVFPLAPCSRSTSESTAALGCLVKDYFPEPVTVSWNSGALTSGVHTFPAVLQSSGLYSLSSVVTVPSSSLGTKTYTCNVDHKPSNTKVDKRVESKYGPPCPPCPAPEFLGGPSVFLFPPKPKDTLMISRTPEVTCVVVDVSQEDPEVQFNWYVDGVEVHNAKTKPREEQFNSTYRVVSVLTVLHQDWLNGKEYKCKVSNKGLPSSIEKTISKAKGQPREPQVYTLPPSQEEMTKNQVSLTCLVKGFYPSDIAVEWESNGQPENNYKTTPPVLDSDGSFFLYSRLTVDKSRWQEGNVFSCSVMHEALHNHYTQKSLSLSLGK
light: EDQLTQSPSSLSASVGDRVTITCRSSQSIVHSNGNTYFEWYQQKPGKSPKLLIYKVSNRFSGVPSRFSGSGSGTDFTLTISSLQPEDFATYYCFQGSLVPWTFGQGTKVEIKRTVAAPSVFIFPPSDEQLKSGTASVVCLLNNFYPREAKVQWKVDNALQSGNSQESVTEQDSKDSTYSLSSTLTLSKADYEKHKVYACEVTHQGLSSPVTKSFNRGEC
notes: also called hu37D3.v1 hIgG4
As for B5, in [9], the Kd came to 2 nM, the koff amounted to 0.0013 s⁻¹ and the kon is 670000 M⁻¹ s⁻¹. In [10], the dissociation constant Kd was determined as 2.3 nM, the off-rate (koff) was 0.001 s⁻¹ and the kon is 600000 M⁻¹ s⁻¹.

B6: 54C1-H11 (antibody, mouse IgG2a, V domains shown)
VH: EVQLVESGGDLVKPGGSLKVSCVASGFTFRSYGMSWVRQTPDKRLDWVATISSGGNYTYYPDSVKGRFTISRDNAKNTLYLQMSSLKSEDTAMYYCASSYSGAMDYWGQGTSVTVSS
VL: DTVMTQSPLSLPVSLGDQASISCRSSQSIVHSNGNTYLEWYLQKPGQSPKLLIYTVSNRFSGVPDRFSGSGSGTDFTLKISRVEAEDLGVYYCFQGSHVPWTFGGGTKLEIK
With B6, the results for the equilibrium dissociation constant (Kd) in [1] and in assay [2] were 1.5 nM and 0.6 nM, respectively. Also, in assay [2], the off-rate (koff) was 0.0002 s⁻¹. Moreover, the association rate constant (kon) in assay [2] stood at 300000 M⁻¹ s⁻¹. The binding result in [3] is recorded as “binds”; in assay [4] it was “no binding (tested: not given)”; in assay [7], “no binding (tested: not given)”; in assay [5], “no binding (tested: not given)”; in assay [6] it was “no binding (tested: not given)”.

B7: 12A10-E8 (antibody, V domains shown)
VH: QIQLVQSGPELKKPGETVKISCKASGYTFTNYGMNWVKQAPGKGLKWMGWINMYTGEPTYGDDFKGRFVFSLETSVSTVYLQINNLKKEDTATFFCARGGRPDYWGQGTSVTVSS
VL: DVLMTQTPLSLPVSLGDQASISCRSSQSIVHSNGNTYLEWYLQKPGQSPKLLIYKVFNRFSGVPDRFSGSGSGTDFTLKINRVEAEDLGVYYCLQGSHVPYTFGGGTKLEIK
notes: hybridoma supernatant
The molecule B7 registered a dissociation constant (Kd) in assay [1] of 0.8 nM. The binding result in assay [8] was “no binding (tested: not given)”.

B8: 123E9-A1 (antibody, mouse IgG2a, V domains shown)
VH: EVQLQQSGPELVKPGASVKMSCKASGYTFTDYYMKWVKQSHGKSLEWIGDIDPNNGGTSYNQKFKGKATLTVDKSSSTAYMQLNSLTSEDSAVYYCARSAGFGDSFSFWGLGTLVTVSA
VL: DVLMTQTPLSLPVSLGDQASISCRSSQSIVHSNGNTYLEWYLQKPGQSPKLLIYKVSNRFSGVPDRFSGSGSGTDFTLKISRVEAEDLGFYYCFQGSHVPPTFGGGTKLEIK
Regarding B8, the values for the Kd in assay [1] and in assay [2] were 1.8 nM and 52 nM, respectively. Further, the off-rate (koff) in [2] was found to be 0.02 s⁻¹. For the same molecule, the on-rate constant (kon) in assay [2] amounted to 400000 M⁻¹ s⁻¹. In addition, the binding result in [3] is “no binding (tested: not given)”; in assay [4], “no binding (tested: not given)”; in assay [7] it was “binds”; in assay [5] it was “binds”; in [6], “no binding (tested: not given)”.
